Measurements as given in patent publication US20260258115A1.

B1: ADI-41297 (antibody, V domains shown)
VH: QVQLVQSGAEVKKPGSSVKVSCKASGGTFSTDAISWVRQAPGQGLEWMGGIIPLFGTANYAQKFQGRVTITADESTSTAYMELNSLRSVDTAVYYCGRTGAFDGEVVVRPHLDLWGQGTLVTVSS
VL: QPVLTQPASVSGSPGQSITISCTGTSSDVGGYDYVSWYQHHPGKAPKLMIYEVSNRPSGVSNRFSGSKSGNTASLTISGLQADDEAAYYCSSYTRSNTLLFGGGTKLTVL
B2: ADI-41307 (antibody, V domains shown)
VH: QVQLVESGGGLVKPGGSLRLSCAASGFPLSPYALNWVRQAPGKGLEWVSSITSSSAYIYYADSVKGRFTVSRDNPTNSLYLQMNSLRAEDTAVYYCARTIPQHYYDNNGDYYNYGMDVWGQGTTVTVSS
VL: DIVLTQSPATLSVSPGQRITLSCRASQTVRSNLAWYQQKPGQPPRLLIYGASTRATGVPARFTGSGSGTEFTLTITSLQSDDFAVYYCHQYNDRPLTFGPGTKVEIK
B3: ADI-41299 (antibody, V domains shown)
VH: EVQLVESGGGLVHPGRSLRLSCGASGFTFRSFAMHWVRQAPGKGLEWVAVISYDGSDEYYADSVKGRFTISRDNSRNTLFLQMNRLRPEDTAIYYCARAYCSTSNCPVLDYWGQGTLVTVSS
VL: QSVLIQPASVSGSPGQSITISCTGTSSDVGGYSLVSWYQQHPGKAPKLIIFEGNKRPAGVSDRFSGSKYGDTASLTISGLQAEDEADYYCCSYAGGHSVFGGGTKVTVL
B4: ADI-41304 (antibody, V domains shown)
VH: EVQLVESGPGLVKPSQTLSLTCTVSGGSIRSHDYYWSWIRQPPGKGLEWIGYSYYSGSTYYNPSLKSRVIISLDTSKNQFSLNLTSVTAADTAMYYCARDRPHTSSWIPGWFDPWGQGTLVTVSS
VL: SYELTQPPSASGTPGQRVTISCSGSSSNIGSNTVSWYQQFPGKAPKLLIYSNNERPSGGPDRFSGSKSGTSASLAIGGLQSEDEANYYCAAWDDSLYAVVFGGGTKLTVL
B5: ADI-41303 (antibody, V domains shown)
VH: QVQLVQSGGGLVRPGGSLRVSCAASGFIFNNYALTWVRQAPGKGLEWVSAISGSGSSTYYADSVKGRFTISRENSNNRLYLQLSGLRAEDTAVYFCARVRGLVWFEGRIDPYPNVFDYWGQGTLVTVSS
VL: DIVLTQSPGTLSLSPGERATLSCRASQSVSNDYLAWYQQKPGQAPRLLIYDASSRAIGIPDRFSGSGSGTDFTLIISRLEPEDFAVYYCHHPGKFGQGTKVEIK
B6: ADI-41318 (antibody, V domains shown)
VH: EVQLLESGAEVKKPGSSVRVSCKAFGGTFSSYAFSWVRQAPGQGLEWMGGITPMFGTENYAPNFQGRVTITADKLTTTVYMELSRLRSEDSAVYYCAREGGRLGTTMGAFDMWGQGTMVTVSS
VL: DIRLTQSPSSLSASVGDRVTITCRASHGISSALAWYQQRPGRVPQVLIFHASTLESGVPSRFSGSGSGTDFTLTISSLQPEDFATYYCQQFNSYPYTFGQGTKVEIK
B7: ADI-41292 (antibody, V domains shown)
VH: EVQLLESGGGVVQPGRSLRLSCAASGFSFSSYGIHWVRQAPGKGLECVALMSYDGSEKYYADSVKGRFTISRDNSKNTLYLHMNSLRREDTAVYYCAKGSHLRWSHLDYYFHLWGRGTLVTVSS
VL: DIVMTQSPSTLSASVGDRVTITCRASQSLSTWLAWYQQKPGKAPKLLISDASNLESGVPSRFSGRGSGTEFTLTISGLQPDDFATYYCQQERTFGQGTKVDIK
B8: ADI-41314 (antibody, V domains shown)
VH: QVQLVQSGAEVKKPGSSVKVSCKAFGGIFSSYAISWVRQAPGQGLEWMGGIIPIFGTTKYAQKFQGRVTITADKSTSTVYMEVSSLRFEESAVYFCARAYCSGGTWYGGADYWGQGTLVTVSS
VL: QSVLTQPPSVSVSPGQTARITCSGDVLPKQYAYWYQQKPGQAPLLVMYKDTERPSGIPERFSGSSSVTAVTLTISGVQAEDEADYYCQSADSTQELFGGGTKLTVL
B9: ADI-41286 (antibody, V domains shown)
VH: QVQLVQSGAEVKKPGASVKVSCKASGYTFISYGISWVRQAPGQGPEWMGWISTHNGNTNYAQKLQGRVTMTTDTSTSTAYMELRSLRSDDTAVYYCARDERSIAVEVYLGSTFDIWGQGTMVTVSS
VL: DIQVTQSPSSVSASVGDRVTITCRASQGISSWLAWYQQKPGKAPKLLIYAASTLQSGVPSRFSGSGSGTDFTLTISRLQPEDFATYYCQQANIFGVTFGPGTKVDIK
B10: ADI-41291 (antibody, V domains shown)
VH: QVQLQQWGAGLLKPSETLSLTCVVYGESFSDSGYYWTWIRQPPEKGLEWIGEINHGGSTSYNPSLKSRVTISVDTSENQFSLKVTSVTGADTAVYYCARLRLGCSGGSCYSRFDYWGQGTLVTVSS
VL: DIQLTQSPSSLSASVGDRVTITCRASQSINSYLNWYQQKPGKAPVLLIHAASSLQGGVPSRFSGSGSGTDFTLTISSLQPEDFATYYCQQSYNTRWTFGHGTKVDIK
B11: ADI-41309 (antibody, V domains shown)
VH: EVQLLESGPGLVKPSQTLSLTCTVSGGSISSGDYYWSWVRQPPGKGLEWIGNIYHSGSTYYKPSLKSRVSISLDTSKNQFSLKLSSVTAADTAIYYCARDGGENYVWGTFRFLDVWGQGTTVTVSS
VL: DIRLTQSPGTLSLSPGERATLSCRASQSVSSSYLAWYQQKPGQAPRLLIYGVSSRATGIPDRFSGSGSGTDFTLTINRLEPEDFALYHCQQYGSSPHTFGQGTKVEIK
B12: ADI-41287 (antibody, V domains shown)
VH: EVQLVESGGGLVQPGRSLRLSCAASGFTFDDYAMHWVRQAPGKGLEWVSSISWHSADIGYAASVEGRFTISRDNAKNSLFLQMNSLRPEDTALYYCAKEIVSTSWYSGYFQDWGQGTLVTVSS
VL: QPVLTQPRSVSGSPGQSVTISCTGTSSDVGDYNYVSWYQQHPGKAPKLMIYDVSKRPSGVPDRFSGSKSGNTASLTISGLQGEDEADYYCCSYAGRHTFVFGTATKVTVL
B13: ADI-41316 (antibody, V domains shown)
VH: QVQLVQSGGGVVQPGRSLRLSCAASGFTFNNYGMHWVRQAPGKGLEWVAVLSFDGINKYYADSARGRFTISRDNSKNTLYLQMNSLRAEDTALYYCAKDRQEYSSGWTHDACDIWGQGTMVTVSS
VL: EIVMTQSPATLSVSPGERATLSCRASQNVNNNLAWYQQNPGQAPRLLIFGASTRATGIPARFSGSGSGTEFTLTISSLQSEDFAVYYCQQYNNWPRTFGQGTKLEIK
B14: ADI-41323 (antibody, V domains shown)
VH: EVQLLESGGGVVRPGGSLRLSCAASGFTFDDYAMGWVRQAPGKGLEWVSGITWNAGSTAYAGSVKGRFTISRDNAKNSLFLQMNSLRAEDTAFYLCARHVDSSGPVARHFDYWGQGTLVTVSS
VL: NFMLTQPHSVSESPGKTVTISCTRSSGSIARNYVQWYQQRPGSAPTIVIYEDNQRPSGVPDRFSGSIDSSSNSASLTISGLKTEDEADYYCQSYDPSNVVFGGGTKLTVL
B15: ADI-41315 (antibody, V domains shown)
VH: EVQLLESGPGLVKPSETLSLTCAVSGGSISNYYWSWIRQPPGKGLEWIAYISYSGTTNYNPSLESRVTISVDTSKNQFSLKLNSVTAADTAVYYCARHEFLVLPDVWGQGTLVTVSS
VL: ETTLTQSPGTLSLSPGERATLSCRASQSVSSTFLAWYQQKPGQAPRLLIYAASSRATGIPDRFSGSGSGTDFTLIISRLEPEDFAVYYCQQYRSSPFSFGPGTKVEIK
B16: ADI-41293 (antibody, V domains shown)
VH: QVQLQQSGPGLAKPSQTLSLTCTVSGGPISGVDYYWSWIRQPPGKGLEWIGYIYYSGSTYYNPSLKSRVTISVDTSKKQFSLKMSSVTAADTAVYYCARDVGATPYYYYGMDVWGQGTTVTVSS
VL: DIVLTQSPDTLSLSPGERATLSCRASQSVRSNYLAWYQHKPGQAPRLLIYGASSRVAGIPDRFSGSGSGTDFTLTISRLEPEDFAVYYCQQYGSSPPSVTFGGGTKVEIK
B17: ADI-41311 (antibody, V domains shown)
VH: QVTLKQSGPALVKPTQTLTLTCTFSGFSLSTKRMGVSWIRQPPGKALEWLARIDWDDDKYYSTSLRTRLTISKDTSKNQVVLTMTDMDPVDTATYYCARIQPYTSGGYYSYYFDYWGQGTLVTVSS
VL: DIQVTQSPSSLSASIGDRVTITCRASQTIASYLNWYQQKPGKAPKLLIYIASSLQSGVPSRFSGSGSGTDFTLTISTLQPEDFATYYCQQSYGTPWTFGQGTKVEIK
B18: ADI-41308 (antibody, V domains shown)
VH: EVQLVESGPGLVKPSQTLSLTCAISGDSVSSNSAAWNWIRQSPSRGLERMGRTYYRSKWYDDYAVSVKSRIIINPDTSKNQFSLQLNSVTPEDTAVYYCARGISTFGGVIYALEIWGQGTMVTVSS
VL: SYVLTQPASVSGSPGQSITISCTGLTSDVGGYNFVSWYQQHPGKAPKLIIYDVSHRPSGVSNRFSGSESGNTASLTISGLQAEDEAHYYCSSYTRTSIVVFGGGTKLTVL
B19: ADI-41306 (antibody, V domains shown)
VH: QVQLVESGPRLVKPSQTLSLTCTVSGGSIYRGDYDWNWIRQPPGKGLEWIGYISYTGNTHYNSSLKSRLSISADTSGTHFSLKLSSVTAADTAIYYCARDVGYGGNAAHYYYYAMDVWGQGTTVTVSS
VL: ETTLTQSPATLSLSPGERATLSCRASQSVGSSLAWYQQKVGQAPRLLIYDASSRVTGIPARFSGSGSGTDFTLTISSLEPGDFAVYYCQQRSNSLTFGGGTKVEIK
B20: ADI-41313 (antibody, V domains shown)
VH: EVQLVESGAEVKKPGASVKVSCKASGYTFNNYDISWVRQAPGQGLEWMGWISTYNGNTNYAQKFQGRATMTTDTSTTTAYMELRSLRSDDSAIYYCARVYCGGDCHNPFFLYFDLWGRGTLVTVSS
VL: SYVLTQPLSVSVALGQTARITCGGNNIGSKSVHWYQQKPGQAPLLVIYRDNNRPSGIPERFSGSTSGNTATLTISRAQAGDEADYSCQVWDNSDWVFGGGTKLTVL

Legend:
[1] = target: RSV postfusion F (postF, F deltaFP) (Respiratory syncytial virus); assay: BLI, IgG on sensor, 100 nM antigen
[2] = target: RSV prefusion F (preF, DS-Cav1) (Respiratory syncytial virus); assay: BLI, IgG on sensor, 100 nM antigen

Row | Binder | Kd [1] [nM] | Kd [2] [nM]
1 | B1 | 0.628 | 3.91
2 | B2 | 0.83 | 2.99
3 | B3 | 2.25 | 3.48
4 | B4 | 0.33 | 0.338
5 | B5 | 0.944 | 2.96
6 | B6 | 35.4 | 426
7 | B7 | 195 | 883
8 | B8 | 0.414 | 2.41
9 | B9 | 5.49 | 7.6
10 | B10 | 1.2 | 2.98
11 | B11 | 1.36 | 4.34
12 | B12 | 0.598 | 3.22
13 | B13 | 1.05 | 3.74
14 | B14 | 0.331 | 1.95
15 | B15 | 1.03 | 2.93
16 | B16 | 0.411 | 0.496
17 | B17 | 0.524 | 0.754
18 | B18 | 0.519 | 4
19 | B19 | 0.454 | 0.462
20 | B20 | 0.342 | 0.455
